Target: the molecule itself
Experiment: cryo-EM structure

B1: TRPV5 Thr709Asp phosphomimetic mutant (rabbit) (natural protein)
chain: MGACPPKAKGPWAQLQKLLISWPVGEQDWEQYRDRVNMLQQERIRDSPLLQAAKENDLRLLKILLLNQSCDFQQRGAVGETALHVAALYDNLEAATLLMEAAPELAKEPALCEPFVGQTALHIAVMNQNLNLVRALLARGASVSARATGAAFRRSPHNLIYYGEHPLSFAACVGSEEIVRLLIEHGADIRAQDSLGNTVLHILILQPNKTFACQMYNLLLSYDEHSDHLQSLELVPNHQGLTPFKLAGVEGNTVMFQHLMQKRKHVQWTCGPLTSTLYDLTEIDSWGEELSFLELVVSSKKREARQILEQTPVKELVSFKWKKYGRPYFCVLASLYILYMICFTTCCIYRPLKLRDDNRTDPRDITILQQKLLQEAYVTHQDNIRLVGELVTVTGAVIILLLEIPDIFRVGASRYFGQTILGGPFHVIIITYASLVLLTMVMRLTNMNGEVVPLSFALVLGWCSVMYFARGFQMLGPFTIMIQKMIFGDLMRFCWLMAVVILGFASAFHITFQTEDPNNLGEFSDYPTALFSTFELFLTIIDGPANYSVDLPFMYCITYAAFAIIATLLMLNLFIAMMGDTHWRVAQERDELWRAQVVATTVMLERKMPRFLWPRSGICGYEYGLGDRWFLRVENHHDQNPLRVLRYVEAFKCSDKEDGQEQLSEKRPSTVESGMLSRASVAFQTPSLSRTTSQSSNSHRGWEILRRNDLGHLNLGLDLGEGDGEEVYHF
binding result: binds

— publication PMC9088182 (Cell reports, 2022)
